Test results from paper PMC11641776, “Biophysical Characterization of a Novel Phosphopentomutase from the Hyperthermophilic Archaeon Thermococcus kodakarensis” (International Journal of Molecular Sciences, 2024).

Target: the molecule itself
Test: SEC; HiLoad 16/60 Superdex 200 Prep Grade column, 50 mM HEPES pH 7.0, 200 mM NaCl; elution at 61 mL, compared with standards

B1: Phosphopentomutase from Thermococcus kodakarensis (PPMTk) (enzyme)
chain: RLFGTAGIRGTLWEKVTPELAMKVGMAVGTYKSGKALVGRDGRTSSVMLKNAMISGLLSTGMEVLDADLIPTPALAWGTRKLADAGVMITASHNPPTDNGVKVFNGDGTEFYVEQERGLEEIIFSGNFRKARWDEIKPVRNVEVIPDYINAVLDFVGHETNLKVLYDGANGAGSLVAPYLLREMGAKVLSVNAHVDGHFPGRKPEPRYENIAYLGKLVRELGVDLAIAQDGDADRIAVFDEKGNYVDEDTVIALFAKLYVEEHGGGTVVVSIDTGSRIDAVVERAGGRVVRIPLGQPHDGIKRYKAIFAAEPWKLVHPKFGPWIDPFVTMGLLIKLIDENGPLSELVKEIPTYYLKKANVLCPDEYKAEVVRRAAEEVERKLSSEIKEVLTISGFRIALNDGSWILIRPSGTEPKIRVVAEAPTEKRRDELFEMAYSTVSRIVKEAEKK
notes: Phosphopentomutase PPMTk of Thermococcus kodakarensis, encoded by open reading frame TK1777; UniProt entry Q6I7B6; residues 3-447 are modelled in each of the four protomers of the crystal structure; the tag was cut off with TEV protease before SEC and the later analyses; also called TK1777; Tk1777; not shown: His6, N-terminal, cleaved
In the case of B1, the “stoichiometry N” value is reported as 4.
